The DeepSol protein solubility set

Assay: soluble on expression in E. coli; label from the status in PepcDB or PDB records

Q: Which “soluble on expression in E. coli” value does the source give for “MGSDKIHHHHHHMFLSPYFLKQNQSISVSAQQASDFAKKIAQDFNPIHDVGAKRFCVPGDLLFALVLTQYGLSQSMKFTFAGMVGDGVELQFPEQVNDSFSICDNRDKTYLNVSRLGDISRCDAQTESFIRHYVAFSGHNFIDILMPLMKQHQVMINPDRPLVIYESMSFDLTTLDFVEVQLSLVQQELKIDGKRGDVTLHFELHSGDTLVGTGIKTLVMSGLRAYEEDQVQQMCAAYEGRKTDF” here?
A: The value was “not soluble”.

Q: Which “soluble on expression in E. coli” value does the source give for “MGSDKIHHHHHHAACQDEDHTVPTLPSGNDPEINDPVVEFYDWEKNRTELLTSTDMVLLYGGGHHRTPYTWDKERVSSYIRYVDTDNQSHWLFDSFLFLEIMDTGTGGANKMFAKGYNLESANQADWTKLIDYYFQSETGIGALDASVKEASAILGTPRQKRQIVISIPEPIVYQHPEQASSSTKYWGKIDNQTLDFSNSADRIKACKWYIDQVRAKFNEKNYQHVELAGFYWLAEKATDTRDILNAVAIYLNKLKYSFNWIPYYGADGYNQWKSLGFNYAYFQPNYFFNESVPDSRLEDACQKALTYDMHMELEFDDNALNSRGKAYRLKNYMSAFKKHGIWEKKRLAYYQGSASLLTLKKSGNAADTQLYHEFCNFVISRPIRSSH” here?
A: Its value is “not soluble”.

Q: With “MRLLIVLSALLIPCLAQLSEDSSELEFGGQQAQRPSPDGPLFPRFLMHVPRFARKEFFDIVSNDQLSQDQQNEQLTIWAKAFNVTDEFNAWTKKIQEQKEAVSKNVEAVASNITTVYTQLEEILSNSNLTRRDQHDQIRKLATTFPREVRALFFIARNYRPEGRSPIFGQGIGMGKKPQSSMVPFIFQQQQPPMMMFGQQPFMPAGPMMMNRFQQTGSQQNFQSRRGGRGDGPGFVPGTQDNNQRGSGERGQRQNFGPSDNLTNGNQFSKKQFARGPSSMNSDLSENSQHSDSNSQFDFPRGPGGRGGRGQGPDFGPGGQGGRGQGPDFGPQDDFPGRRGSGGPGGRGGRGQGPDFEPQDDFPGRRGSGGPGRRGGRGQGPDFGPQDDFPGRRGSGGPGGRGGRGQGPDFGPGRQGGRGQGPDFGPQDDFSGRRGSGGPGGRGGRGQEPDFGPGGQGGRGQGPDFGPQDDFPGRRGSGGPEGRDGRGQGPDFGPGSQGGRGQDSDSGSQDAFPGRRGSGGPGGRGQGPDFGPQDDFPGRRGSGGPEGRDGRGQGPDFGPGSQGGRGQDSDSGSQDAFPGRRGPGGPGGLGGRGQGPDFGPGGQGDRGQGPDFGARSQGNRGQGPAFESRQPRQFDDADTSSAPSQKYFQRQMNSGMRFDQSSGFGMRKSQSTQQNYENFAEN” as the sequence, how does the “soluble on expression in E. coli” value read?
A: The value was “not soluble”.

Q: For “MGLELFLDLVSQPSRAVYIFAKKNGIPLELRTVDLVKGQHKSKEFLQINSLGKLPTLKDGDFILTESSAILIYLSCKYQTPDHWYPSDLQARARVHEYLGWHADCIRGTFGIPLWVQVLGPLIGVQVPEEKVERNRTAMDQALQWLEDKFLGDRPFLAGQQVTLADLMALEELMQPVALGYELFEGRPRLAAWRGRVEAFLGAELCQEAHSIILSILEQAAKKTLPTPSPEAYQAMLLRIARIP”, which “soluble on expression in E. coli” value is on record?
A: Its value is “soluble”.

Q: With “MSLDLGTTKYIIYAELIADGYVEKHDVIGAIFGQTEGLLGDELDLRELQKTGRVGRIDVELTNINGKSIAKITVPSSLDRIETSILAATLETIDRVGPCVATVKVIDIEDIRKKKREYIVERAKEILKQLMSNIDVNTIIEEVKESVRMGEIIEYGPERLPAGPAVDEGHHHHHH” as the sequence, how does the “soluble on expression in E. coli” value read?
A: The value was “soluble”.

Q: Which “soluble on expression in E. coli” value does the source give for “TKVKSIPLLIVPPWINKYYILDLSPHNSLIRWLVEQGITVFIISWVNPDETYANKSFYDYLNEGPREAIAVIQKQLRVKQVNTLGFCIGGTLLASLLAYNKATKDHSIRSATFLAAMIDFSDPGDIAVFIDEQQINKLEEEMKSKGYLAGKFMASSFNSLRANDLIWSFFIKNYLRGKSPVPFDILYWNADSTNMPATMHSQYLRWMYLHNNLIKPGKIRLNHIPIDVTNIDIPTFFLSTQKDHIAPWKTTYKGFELMKGPKRFVLGGSGHI” here?
A: Its value is “not soluble”.

Q: With “MGSDKIHHHHHHMKVTFLGHAVVLIEGKKNIIIDPFISGNPVCPVKLEGLPKIDYILVTHGHGDHLGDAVEIAKKNDATVISNYEICHYLGKKGVKTHAMHIGGSYLFDFGRVKMTPAVHGSGILDGDSMIYGGNPSGFLITIEGKKIYHAGDTGLTREMELLAEENVDVAFLPIGGNFVMDVEDAVRAAVMIKPKKVVPMHYGTWELIFADVELFKKKVEEKGVECVILEPGESLEL” as the sequence, how does the “soluble on expression in E. coli” value read?
A: The value was “not soluble”.

Q: With “MRAFSFRPFFLQALVVMPEYVNWLRHASPYINAHRDCTFVVMLPGDGVAHPNFGNIVHDLVLLHSLGVRLVLVHGSRPQIESRLAQRGITPRYHRDMRITDTETLECVIDAVGQLRISIEARLSMDMAASPMQGSRLRVTSGNVVTARPIGVLEGIDYQHTGEVRRVDRKGINRLLDERHIVLLSPLGYSPTGEIFNLACEDVATRAAIDLAADKLLLFGAETGLLDEQGRLVRELRPQQVPAHLQRLGGNYQAELLDAAAEACRGGVARSHIVSYAEDGALLTELFTRDGGGTLVAQEQFELVREAAIEDVGGLMDLITPLEEQGILVRRSREVLEREITQFSVVEREGLIIACAALYPIADSESGELACLAVNPEYRHGGRGDELLERIENRARALGIKTLFVLTTRTAHWFRERGFEPSSVDRLPSARASLYNFQRNSKIFEKAI” as the sequence, how does the “soluble on expression in E. coli” value read?
A: Its value is “not soluble”.

Q: For “GPGSMAEEIRTMIIGTSSAFRANVLREHFGDRFRNFVLLPPDIDEKAYRAADPFELTESIARAKMKAVLEKARQHSPPISGPAIALTFDQVVVKGDEVREKPLSTEQCRSFIASYSGGGVRTVATYALCVVGTENVLVAHNETETFFSKFGDDIVERTLERGACMNSAGGLVVEDEDMSRHVVRIVGTSYGVRGMEPAVVEKLLSQL”, which “soluble on expression in E. coli” value is on record?
A: Its value is “soluble”.

Q: Which “soluble on expression in E. coli” value does the source give for “MFNLQKRINGNNEDGRYLETRIAVRDKLLAQELQQLETALRDQKQKLWHLEVPSTSCLHELELTVTPQEGIYRGGKFRFKITVPPEYNNVPPVVKCLTKVWHPNINEDGSICLSILRQNSLDQYGWRPTRNLTDVVHGLVSLFNDLMDFNDALNIQAAQMWSQNRESFNHRVREYISRYC” here?
A: Its value is “soluble”.

Q: With “MSLIDYQEVLSRYRPTQEEENKLKIISDDIIRKINSICRSRGLRAEAVIVGSYAKGTNLRDGDLDIFIAFDRDYPEEIINTEGLHIGHAVIPNGREKYAEHPYVSGEIGGVKIDVVPCYKMSFGDKKISAVDRTLLHTEYVNGHLDEKGRDEVRLLKIFTKSIGVYGAEARTFGFSGYLCELLVIRFGSFENVIRYFSKAKGRVLIDLDERFRDPMVLIDPVDPDRNVASPVSLESLSRMKIASKMFLSSPDEGFFQIEHNGKNVQYHDRGTCIMIYSLPKPDLTDDVIYPQVYRFRSVLQKIMESHEIRVISSEIDVSDRIYVLIETPACAEERIRVHTGPPVDTDNAVDFVNSWKARDRSRGPYIVADRLYVDVFTGQRSIEDIVRQEIFNYSIGKNLDRFKKSMEIMKFNVGMKSLPVLDKFFGADVFRKEGHHHHHH” as the sequence, how does the “soluble on expression in E. coli” value read?
A: The value was “soluble”.

Q: With “MESVTRKSVLQLEERPGDSSSSSDEEINTIGNVPLDWYKDLSHIGYTRDGIKLLRRKRVGPLCPVYVKKGFYYLYDEKNDEEIALSRNDLKRLVSIVRLQNPSGATESGFVGEEIVFWTGTPRIEPIRNRNEPKRSFLPSRHEAAQVVKLVRSILRRKRIEELKEHKSEKEDLSIWEETSFEQVGRSHHYLPPPKTPLPGHEESYRPPPEFLLNEEEKSKRKENNELVPETYNFLRHVPLYTSLIREHFERCLELYCAPRMRVRRRKIDPEALLPKLPSPDTLRPFPDSQVASFGPHAGAIRAISLNSNGQWLACACQDGSVSIWEVATGICRIRIDFQEKLKEMLASFESLSQATESEMESMGQYEDLSILHVAWSPKENDFKLAVCIKHFVAVVNVAHILYPDEAQDSQSFGYSVVGEPSSNWKDWKDERGNLGRIAIIEHSRKVQHVHWHQRGDYFVVLTKNAFGSSLVVHQLSRKRTQSPFSKSAKGVITADFHPSKSLFFITTKHHVRIYDLAQAQLVNKLVTGISEISAMSVHPSGNHVLIGSVEGQLVWFDLDLSSRPYKRIRDHTYTVSSIAFHPTLPLFADASDDQTVAVFHATVYEDLLQNPLIVPLKVLKLPHNSKGTGVWSICWHPQLPWLFVSGIDEYVRLYADTS” as the sequence, how does the “soluble on expression in E. coli” value read?
A: The value was “soluble”.

Q: Which “soluble on expression in E. coli” value does the source give for “MGQKRMNKSNKLVIINRAIPGGGKTSLIKQIEELAKSLGHSISVHSTDEYFIQTDEEGIRHYVVDKKKLNEYHQNNQEAFKQALENRIDIVVCDNTNFESWQSKPYTDMAREFGYKILLIDFKNRHLETPMDYGWDVAQCIKKPRGIAKHYDYDFYLERVLVEPQDYEKQNRELSLKALEFLKYNFDFDVIFYSFGEQLMPILTRMLVSVSKSHRKRLENYGKDIKTLEHHHHHHLEHHHHHHLEHHHHHHLEHHHHHHLEHHHHHHLEHHHHHHLEHHHHHH” here?
A: The value was “not soluble”.

Q: Which “soluble on expression in E. coli” value does the source give for “MSLGAKKEGFQTMVITDNKRENFYKNFSFIDNIYAYASLDEAVSIINGIKDYGILIPHGSLVEYLGKERVDKIETKIFGNKKIFEWEADQKKKMELLRKSNIKIPEIFERPEDVDRLVIVKLNGAKGGKGYFLARNKSEVKEGIQKLIESKMIRDENEVIIQEYVVGVPMYFQFFYSDIINRTEIFGIDIRYETNIDGLRRLPFEYMKELKINPTFVVVGNIPAVARESLLPVALEYANNFVRTTKELVPPGMIGPFCLESIITDNSDIVVFEFSGRIVAGTNLYVNGSPYSWLYWDEPMSIGRRIAREIRVANEKDKLSLVVSEGHHHHHH” here?
A: The value was “not soluble”.

Q: With “MSSIKTSPTKKTSESTTKQDTPNDQTNIENFDEEPSMLSDPEDYLEENETLDMNLSKGDQKVWLVKLPKYLMDDWSNPDSMNGQQLGNVKIKKDARGKLQVKLLLDNKNDRIPKEYDIKMLNTQVRNSYVFTEENLKKFKQEVTEVSDMPEQPQLKELNPEKKKFQVRRKFKYFRVQKEGENGQPVKKYIPFVKTIPKKTSLMGKVCHDCTVVPARTGSKHGESLMKHQNMTQGKERPKVTLLNEIPGVIQSNAGPSIKGNAASIFLKSTQGKNKSEGRTIRMPKKDLLDLLFRLFEEYEYWSMKGLKERTRQPESYLKESLESIATLIKRGPYTSKYTLKAEYRRLRDAERAVRLGLDEDDQNKENNEDEDEDEEMEDVV” as the sequence, how does the “soluble on expression in E. coli” value read?
A: The value was “soluble”.

Q: For “MSLEIKNVSKQIGDRKILDNISLTIDKGSLVVLIGSSGCGKTTTLKLINKLITPTSGEIFINGKSLAKENPIELRRNIGYVIQNNGLFPHLTIKENIELIPRLKKGKDVEKIEKTTLDLLNMVGLDPEIYLNKYPSELSGGQQQRVGFARAFATDAEIILMDEPFSALDPITRTSLQEELFNIQEELKKTIIFVTHDMDEALKIADKICIMNGGKIAQYDTPENILRNPANDFVRDFIGSDRVWNNPDFIKAKDIMIKNPVSVKGARTILQGIEIMRSNKVDSLLVIDKENVLKGIVTFKDIKITNEKSRALSEIMSENPLRVNEDDSLVDILTVMNENSVGFIPVVNSEEKLVGLITRSSLLSILSDQFLDMEVNIFEEGHHHHHH”, which “soluble on expression in E. coli” value is on record?
A: Its value is “soluble”.

Q: For “MSLIIQVSPAGSMDLLSQLEVERLKKTASSDLYQLYRNCSLAVLNSGSHTDNSKELLDKYKNFDITVMRRERGIKLELANPPEHAFVDGQIIKGIQEHLFSVLRDIVYVNMHLADSQRLNLTNATHITNLVFGILRNAGALIPGATPNLVVCWGGHSINEVEYQYTREVGHELGLRELNICTGCGPGAMEGPMKGAAVGHAKQRYSEYRYLGLTEPSIIAAEPPNPIVNELVIMPDIEKRLEAFVRMAHGIIIFPGGPGTAEELLYILGIMMHPENADQPMPIVLTGPKQSEAYFRSLDKFITDTLGEAARKHYSIAIDNPAEAARIMSNAMPLVRQHRKDKEDAYSFNWSLKIEPEFQLPFEPNHESMANLDLHLNQRPEVLAANLRRAFSGVVAGNVKAEGIREIERHGPFEMHGDPVLMKKMDQLLNDFVAQNRMKLPGGSAYEPCYKIVTEGHHHHHH”, which “soluble on expression in E. coli” value is on record?
A: The value was “soluble”.

Q: For “MTFHYPNGIPYNHHEAQSPKKQVKKKRPVEFGNRGMDFEEAINQSNQYYLLNKQAVVHKKPTPVQIVKVDYPKRSAAVIKEAYFRQASTTDYNGVYQGRYIDFEAKETKNTTSFPFKNFHQHQIDHMEQCIAQQGICFVLLWFSSLKRCFFFSGENLITHWKNQAVTGKKSMPLALIEKEGIELSFGIAPRIPYLDAVEQYIQTH”, which “soluble on expression in E. coli” value is on record?
A: Its value is “not soluble”.
